Here are results for three molecules from patent US20100216693A1 (published 2010).

B1: C-peptide variant Glu11-Ala (peptide)
peptide: EAEDLQVGQVALGGGPGAGSLQPLALEGSLQ
B2: C-peptide variant with Glu3, 11 and 27 all exchanged for Ala (peptide)
peptide: B1 peptide with E3A, E27A
B3: C-peptide variant Glu27-Ala (peptide)
peptide: B1 peptide with A11E, E27A
notes: also called Glu27Ala C-peptide analogue

Numbering of substitutions follows the chain as printed.

For the experiment, the target named is T1, Human insulin (Actrapid) (human).
T1 construct: On the chip it was coupled through the N-terminus (amine coupling) or the C-terminus (surface thiol coupling); also called free insulin; immobilized insulin
T1 sequence (chain, as listed by the source, chain 1 of 2): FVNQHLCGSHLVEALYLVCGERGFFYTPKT
T1 sequence (chain, as listed by the source, chain 2 of 2): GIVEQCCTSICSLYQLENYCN
Description: SPR, immobilized insulin. (In general: Surface plasmon resonance follows binding to a sensor surface in real time, without labels.)
Turning to B1, the binding result is recorded as “no binding”. For B2, the binding result is recorded as “no binding”. As for B3, the binding result was “no binding”.
